This note sets out measurements from publication PMC8531034, “Structural insights into RNA polymerase III-mediated transcription termination through trapping poly-deoxythymidine” (Nature Communications, 2021).

The labels stand for the following.
B2: RPC2, subunit of human RNA polymerase III (natural protein)
chain: MDVLAEEFGNLTPEQLAAPIPTVEEKWRLLPAFLKVKGLVKQHIDSFNYFINVEIKKIMKANEKVTSDADPMWYLKYLNIYVGLPDVEESFNVTRPVSPHECRLRDMTYSAPITVDIEYTRGSQRIIRNALPIGRMPIMLRSSNCVLTGKTPAEFAKLNECPLDPGGYFIVKGVEKVILIQEQLSKNRIIVEADRKGAVGASVTSSTHEKKSRTNMAVKQGRFYLRHNTLSEDIPIVIIFKAMGVESDQEIVQMIGTEEHVMAAFGPSLEECQKAQIFTQMQALKYIGNKVRRQRMWGGGPKKTKIEEARELLASTILTHVPVKEFNFRAKCIYTAVMVRRVILAQGDNKVDDRDYYGNKRLELAGQLLSLLFEDLFKKFNSEMKKIADQVIPKQRAAQFDVVKHMRQDQITNGMVNAISTGNWSLKRFKMDRQGVTQVLSRLSYISALGMMTRISSQFEKTRKVSGPRSLQPSQWGMLCPSDTPEGEACGLVKNLALMTHITTDMEDGPIVKLASNLGVEDVNLLCGEELSYPNVFLVFLNGNILGVIRDHKKLVNTFRLMRRAGYINEFVSISTNLTDRCVYISSDGGRLCRPYIIVKKQKPAVTNKHMEELAQGYRNFEDFLHESLVEYLDVNEENDCNIALYEHTINKDTTHLEIEPFTLLGVCAGLIPYPHHNQSPRNTYQCAMGKQAMGTIGYNQRNRIDTLMYLLAYPQKPMVKTKTIELIEFEKLPAGQNATVAVMSYSGYDIEDALVLNKASLDRGFGRCLVYKNAKCTLKRYTNQTFDKVMGPMLDAATRKPIWRHEILDADGICSPGEKVENKQVLVNKSMPTVTQIPLEGSNVPQQPQYKDVPITYKGATDSYIEKVMISSNAEDAFLIKMLLRQTRRPEIGDKFSSRHGQKGVCGLIVPQEDMPFCDSGICPDIIMNPHGFPSRMTVGKLIELLAGKAGVLDGRFHYGTAFGGSKVKDVCEDLVRHGYNYLGKDYVTSGITGEPLEAYIYFGPVYYQKLKHMVLDKMHARARGPRAVLTRQPTEGRSRDGGLRLGEMERDCLIGYGASMLLLERLMISSDAFEVDVCGQCGLLGYSGWCHYCKSSCHVSSLRIPYACKLLFQELQSMNIIPRLKLSKYNE
notes: RPC2, second largest subunit of human RNA polymerase III (catalytic core; lobe, protrusion, fork loops 1 and 2); Subunit of the 17-subunit Pol III complex; source: Expi293F cells, transiently expressed, purified to homogeneity as part of the recombinant human Pol III complex

Test [1] addresses B2. The test is described as follows: cryo-EM structure; recombinant human Pol III (17 subunits) assembled with a DNA-RNA scaffold with seven dT in the non-template strand, 1:2 molar ratio, dialysed in 20 mM HEPES pH 8.0, 150 mM NaCl, 2 mM MgCl2, 2 mM DTT; 3D classification gave two states, PTC (3.6 Å, core 3.3 Å) and EC (3.6 Å). Conditions: both partners purified.
The target of test [2] is T1, RPC1, subunit of human RNA polymerase III (human, UniProt O14802 1-1390).
T1 construct: RPC1, largest subunit of human RNA polymerase III (catalytic core); Subunit of the 17-subunit Pol III complex; source: Expi293F cells, transiently expressed, purified to homogeneity as part of the recombinant human Pol III complex
T1 sequence: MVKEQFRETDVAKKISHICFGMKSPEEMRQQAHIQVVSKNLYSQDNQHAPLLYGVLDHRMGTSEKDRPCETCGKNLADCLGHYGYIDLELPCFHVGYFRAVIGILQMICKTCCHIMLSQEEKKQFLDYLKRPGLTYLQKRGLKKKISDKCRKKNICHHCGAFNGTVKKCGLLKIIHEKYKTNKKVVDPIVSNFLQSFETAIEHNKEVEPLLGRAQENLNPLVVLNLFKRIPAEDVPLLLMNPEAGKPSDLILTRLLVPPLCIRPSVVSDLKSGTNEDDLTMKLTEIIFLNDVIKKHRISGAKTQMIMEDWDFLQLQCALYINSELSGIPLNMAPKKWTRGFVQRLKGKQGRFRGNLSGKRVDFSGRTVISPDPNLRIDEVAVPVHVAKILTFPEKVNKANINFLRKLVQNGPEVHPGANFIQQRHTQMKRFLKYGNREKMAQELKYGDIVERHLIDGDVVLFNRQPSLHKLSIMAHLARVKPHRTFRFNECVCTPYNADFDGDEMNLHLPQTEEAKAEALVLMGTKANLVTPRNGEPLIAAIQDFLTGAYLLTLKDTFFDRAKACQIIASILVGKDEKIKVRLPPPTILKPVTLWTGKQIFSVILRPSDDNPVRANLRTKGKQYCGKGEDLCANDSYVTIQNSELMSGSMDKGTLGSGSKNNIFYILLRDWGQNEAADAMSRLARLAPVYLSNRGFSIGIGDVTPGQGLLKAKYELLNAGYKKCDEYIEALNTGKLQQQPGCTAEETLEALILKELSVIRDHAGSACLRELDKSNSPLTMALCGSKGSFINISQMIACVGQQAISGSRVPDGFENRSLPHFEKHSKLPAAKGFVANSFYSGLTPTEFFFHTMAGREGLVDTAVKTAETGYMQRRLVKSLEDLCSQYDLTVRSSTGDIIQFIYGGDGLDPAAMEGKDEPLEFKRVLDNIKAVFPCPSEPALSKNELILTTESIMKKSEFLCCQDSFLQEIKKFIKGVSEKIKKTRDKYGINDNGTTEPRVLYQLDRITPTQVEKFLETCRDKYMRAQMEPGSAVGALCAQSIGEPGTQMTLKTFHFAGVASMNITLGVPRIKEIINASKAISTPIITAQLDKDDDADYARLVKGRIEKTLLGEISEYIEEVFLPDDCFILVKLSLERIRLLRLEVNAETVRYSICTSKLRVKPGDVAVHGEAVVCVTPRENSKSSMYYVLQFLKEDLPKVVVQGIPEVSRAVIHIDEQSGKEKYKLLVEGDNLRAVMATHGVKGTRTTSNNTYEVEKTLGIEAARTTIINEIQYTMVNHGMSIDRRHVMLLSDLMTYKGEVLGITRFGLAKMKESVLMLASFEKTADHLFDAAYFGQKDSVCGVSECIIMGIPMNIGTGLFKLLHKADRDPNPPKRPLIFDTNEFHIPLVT
The test is described as above. The note with it: both partners purified.

B1: RPC10, subunit of human RNA polymerase III (natural protein)
chain: not shown
notes: RPC10 of human RNA polymerase III, with N-terminal ribbon domain (N-ribbon) and C-terminal ribbon domain (C-ribbon); Subunit of the 17-subunit Pol III complex; also called C11 (yeast equivalent); source: Expi293F cells, transiently expressed, purified to homogeneity as part of the recombinant human Pol III complex
Regarding B1, the binding result in test [1] is “binds”.
With B2, in test [2], the binding result is reported as “binds”.

B3: RPC4-RPC5 dimer module of human RNA polymerase III (complex)
chain 1: MSEGNAAGEPSTPGGPRPLLTGARGLIGRRPAPPLTPGRLPSIRSRDLTLGGVKKKTFTPNIISRKIKEEPKEEVTVKKEKRERDRDRQREGHGRGRGRPEVIQSHSIFEQGPAEMMKKKGNWDKTVDVSDMGPSHIINIKKEKRETDEETKQILRMLEKDDFLDDPGLRNDTRNMPVQLPLAHSGWLFKEENDEPDVKPWLAGPKEEDMEVDIPAVKVKEEPRDEEEEAKMKAPPKAARKTPGLPKDVSVAELLRELSLTKEEELLFLQLPDTLPGQPPTQDIKPIKTEVQGEDGQVVLIKQEKDREAKLAENACTLADLTEGQVGKLLIRKSGRVQLLLGKVTLDVTMGTACSFLQELVSVGLGDSRTGEMTVLGHVKHKLVCSPDFESLLDHKHR
chain 2: MANEEDDPVVQEIDVYLAKSLAEKLYLFQYPVRPASMTYDDIPHLSAKIKPKQQKVELEMAIDTLNPNYCRSKGEQIALNVDGACADETSTYSSKLMDKQTFCSSQTTSNTSRYAAALYRQGELHLTPLHGILQLRPSFSYLDKADAKHREREAANEAGDSSQDEAEDDVKQITVRFSRPESEQARQRRVQSYEFLQKKHAEEPWVHLHYYGLRDSRSEHERQYLLCPGSSGVENTELVKSPSEYLMMLMPPSQEEEKDKPVAPSNVLSMAQLRTLPLADQIKILMKNVKVMPFANLMSLLGPSIDSVAVLRGIQKVAMLVQGNWVVKSDILYPKDSSSPHSGVPAEVLCRGRDFVMWKFTQSRWVVRKEVATVTKLCAEDVKDFLEHMAVVRINKGWEFILPYDGEFIKKHPDVVQRQHMLWTGIQAKLEKVYNLVKETMPKKPDAQSGPAGLVCGDQRIQVAKTKAQQNHALLERELQRRKEQLRVPAVPPGVRIKEEPVSEEGEEDEEQEAEEEPMDTSPSGLHSKLANGLPLGRAAGTDSFNGHPPQGCASTPVARELKAFVEATFQRQFVLTLSELKRLFNLHLASLPPGHTLFSGISDRMLQDTVLAAGCKQILVPFPPQTAASPDEQKVFALWESGDMSDQHRQVLLEIFSKNYRVRRNMIQSRLTQECGEDLSKQEVDKVLKDCCVSYGGMWYLKGTVQS
notes: RPC4 of human RNA polymerase III (dimer module); RPC5 of human RNA polymerase III (dimer module; holds the hotspot); the mammal-specific C-terminal domain was not seen in the PTC map; Named throughout as a heterodimer; Part of the 17-subunit Pol III complex; also called RPC4-5; C53-C37 (yeast equivalent); source: Expi293F cells, transiently expressed, purified to homogeneity as part of the …
Turning to B3, the binding result in test [1] is on record as “binds”.
